Assays:
[1] = biological target: VEGF-B(10–108) (fusion protein) with thioredoxin, His tag and S tag (human); assay: SDS-PAGE and Western blot
[2] = biological target: VEGF-B(10–108), minimal receptor-binding domain of vascular endothelial growth factor-B (untagged dimer) (human); assay: crystal structure

| stoichiometry N [1] | stoichiometry N [2] | Substance |
| --- | --- | --- |
| 2 | – | VEGF-B(10–108) (fusion protein) with thioredoxin, His tag and S tag (domain or fragment) |
| – | 2 | VEGF-B(10–108), minimal receptor-binding domain of vascular endothelial growth factor-B (untagged dimer) (domain or fragment) |

— publication PMC2911289
